Where two headings read alike, the source gives them in different places. Marks after values point to notes of the source that are not given here. No end group written: not given here.
What was measured:
[1] = Oral gavage of zanamivir with various BAC analogs, plasma zanamivir; format: in vivo, Male Swiss CFW mice; settings: fasted mice, 1 mg/kg zanamivir, BAC 1x equal molar; for Increase in concentration above H2O control / Mean Plasma Zanamivir Concentration: 30 min
Text: Plasma zanamivir concentrations are quantified by LC/MS/MS analysis.

[2] = Critical micellar concentration (CMC) of BACs, dye solubilization method; format: physicochemical; settings: DPH dye solubilization, 50 mM Tris buffer pH 8.0
Protocol: Briefly, serial dilutions of a 7 mg/ml solution of the BACs are made in 50 mM Tris buffer pH 8.0. 10 ul of the dye 1,6-diphenyl-1,3,5-hexatriene (DPH, Sigma) (0.4 mM in methanol) is added to each ml. After overnight RT incubation in the dark, the absorbance of the samples at 356 nm is recorded. Linear regression of the data points above baseline was performed and the calculated CMC derived from the x intercept. The results for thirteen different BACs are shown in Table 1 based on a chendoxycholamide of the detailed motifs.

[3] = tibia, 24 hours after oral dosing, 4 mg/kg alendronate, with or without 4× molar BAC-A6
Protocol: Male Swiss CFW mice 25-28 g are fed or fasted overnight and subsequently lightly anesthetized with isoflurane by inhalation prior to oral dosing. Mice are administered 0.2 ml of the dosing solution. 24 hrs after dosing the mice are sacrificed and the tibia collected. […] The amount of 14CO2 is quantified by scintillation counting.

[4] = In situ intestinal absorption, single pass perfusion of radiolabeled BAC/pDNA; format: in vivo; settings: complexes with membrane translocating BAC
Protocol: In order to examine the capability of the BAC/pDNA complex to bind and/or be absorbed onto the intestinal lumen cells the absorption of nicked-radiolabeled pDNA in a single pass perfusion experiment is tested. Using isolated ileal or jejunal segments radio-labeled BAC/pDNA mixtures mixture is mixed with HEPES buffer, pH 7.4, and perused at jejunal (filled symbols) and ileal (open symbols) sites. After 30 min of steady state, sample fractions are collected and the absorbed fraction of BAC/pDNA calculated. BAC/pDNA mixtures used are pDNA:BAC 1:27,000 neutrally charged and 1:54,000 molar ratios positively charged. Uncomplexed pDNA is used as a control.

[5] = Octanol/buffer partitioning of carboxyfluorescein mixed with BAC analogs; format: physicochemical; settings: 4 nmoles carboxyfluorescein, 281 nmoles BAC
Protocol: Partitioning of the fluorescent compound carboxyfluorescein by a BAC of Formula I into the octanol phase of an octanol/buffer portioning system for a series of BAC compounds is determined following standard methods. […] The mixture is vortexed for 5 mins and the incubated at room temperature for 3 hours. The solution is centrifuged to facilitate complete phase separation and a 100 μl of aqueous material is withdrawn for fluorescent measurement.

Compound	Increase in concentration above H2O control [1]	Mean Plasma Zanamivir Concentration [1]	Calculated CMC concentration [2]	also measured
C8: chendoxycholamide bile acid conjugate, peptide Z = -RRARRARR (not fully specified (N-terminus); printed as -RRARRARR; also: chenodeoxycholamide bile acid conjugate, attachment not placed)	4 fold	223 ng/mL	4.4 mM	–
D9: chendoxycholamide bile acid conjugate, peptide Z = -RARARARAR (not fully specified (N-terminus); printed as -RARARARAR; also: chenodeoxycholamide bile acid conjugate, attachment not placed)	–	–	1.7 mM	–
NCCCC(O)(P(=O)(O)O)P(=O)(O)O [Alendronate, alendronate]	–	–	–	Bone deposition of 14C-alendronate, mean dpm/mg bone ([3]; Fasted mice): 3.92 dpm/mg; Bone deposition of 14C-alendronate, mean dpm/mg bone ([3]; Fed mice): 9.51 dpm/mg
membrane translocating BAC: 12-residue membrane translocating peptide (SEQ ID NO: 23) coupled to bile acid by an ether linkage (AAVLLPVLLAAP; also: coupled to bile acid by an ether linkage, site not given here)	–	–	–	in situ intestinal absorption compared with FIG. 7 [4]: comparable results to those depicted in FIG. 7
CC(=O)N[C@H]1[C@H]([C@H](O)[C@H](O)CO)OC(C(=O)O)=C[C@@H]1N=C(N)N [Zanamivir, zanamivir, reference compound]	1 fold	–	–	concentration at 30 min ([1]; male, Swiss CFW, mouse, plasma): 55 ng/mL
Carboxyfluorescein	–	–	–	Fluorescence Units ([5]; aqueous phase after octanol/buffer partitioning): 78614; LogD ([5]; carboxyfluorescein, octanol/buffer): −1.638
B7: chendoxycholamide bile acid conjugate, peptide Z = -RRRARRR (not fully specified (N-terminus); printed as -RRRARRR; also: chenodeoxycholamide bile acid conjugate, attachment not placed)	4 fold	228 ng/mL	>5.0* mM	–
N-E9 motif of chenoxycholamide (RAWARAWAR; also: chenodeoxycholamide bile acid conjugate, site not given here)	22 fold	1227 ng/mL	1.2 mM	–

— patent US20080026077A1, “METHODS AND COMPOSITIONS OF GENE DELIVERY AGENTS FOR SYSTEMIC AND LOCAL THERAPY” (priority 2002, published 2008)
